# In article PMC6056499, “A systematic dissection of sequence elements determining β-Klotho and FGF interaction and signaling” (Scientific Reports, 2018):
# Changes are numbered by the printed parent chain.
# B1: mature human FGF21 polypeptide fused with the human Fc fragment at the N-terminus (Fc-FGF21), wild type, Q9NSA1 191S-A (protein)
# chain: HPIPDSSPLLQFGGQVRQRYLYTDDAQQTEAHLEIREDGTVGGAADQSPESLLQLKALKPGVIQILGVKTSRFLCQRPDGALYGSLHFDPEACSFRELLLEDGYNVYQSEAHGLPLHLPGNKSPHRDPAPRGPARFLPLPGLPPALPEPPGILAPQPPDVGSADPLSMVGPSQGRSPSYAS
# B2: mature human FGF21 polypeptide fused with the human Fc fragment at the N-terminus (Fc-FGF21), wild type, Q9NSA1 207Y-A (protein)
# chain: B1 chain with A163S, Y179A
# B3: mature human FGF21 polypeptide fused with the human Fc fragment at the N-terminus (Fc-FGF21), wild type, Q9NSA1 191S-R (protein)
# chain: B1 chain with A163R
# B4: mature human FGF21 polypeptide fused with the human Fc fragment at the N-terminus (Fc-FGF21), wild type, Q9NSA1 206S-A (protein)
# chain: B1 chain with A163S, S178A
# B5: mature human FGF21 polypeptide fused with the human Fc fragment at the N-terminus (Fc-FGF21), wild type, Q9NSA1 207Y-R (protein)
# chain: B1 chain with A163S, Y179R
# B6: mature human FGF21 polypeptide fused with the human Fc fragment at the N-terminus (Fc-FGF21), wild type, Q9NSA1 206S-R (protein)
# chain: B1 chain with A163S, S178R
# B7: mature human FGF21 polypeptide fused with the human Fc fragment at the N-terminus (Fc-FGF21), wild type, Q9NSA1 204S-A (protein)
# chain: B1 chain with A163S, S176A
# B8: mature human FGF21 polypeptide fused with the human Fc fragment at the N-terminus (Fc-FGF21), wild type, Q9NSA1 204S-R (protein)
# chain: B1 chain with A163S, S176R
# Biological target: human β-Klotho extracellular domain (aa1–992) fused with a 6 × His tag at the C-terminus, Q86Z14
# Assay: solid-phase binding assay
# Conditions: chain shown with the change;; parent: est. 1.0; read off a plot
# Chain of human β-Klotho extracellular domain (aa1–992) fused with a 6 × His tag at the C-terminus, Q86Z14 (Q86Z14 53-992): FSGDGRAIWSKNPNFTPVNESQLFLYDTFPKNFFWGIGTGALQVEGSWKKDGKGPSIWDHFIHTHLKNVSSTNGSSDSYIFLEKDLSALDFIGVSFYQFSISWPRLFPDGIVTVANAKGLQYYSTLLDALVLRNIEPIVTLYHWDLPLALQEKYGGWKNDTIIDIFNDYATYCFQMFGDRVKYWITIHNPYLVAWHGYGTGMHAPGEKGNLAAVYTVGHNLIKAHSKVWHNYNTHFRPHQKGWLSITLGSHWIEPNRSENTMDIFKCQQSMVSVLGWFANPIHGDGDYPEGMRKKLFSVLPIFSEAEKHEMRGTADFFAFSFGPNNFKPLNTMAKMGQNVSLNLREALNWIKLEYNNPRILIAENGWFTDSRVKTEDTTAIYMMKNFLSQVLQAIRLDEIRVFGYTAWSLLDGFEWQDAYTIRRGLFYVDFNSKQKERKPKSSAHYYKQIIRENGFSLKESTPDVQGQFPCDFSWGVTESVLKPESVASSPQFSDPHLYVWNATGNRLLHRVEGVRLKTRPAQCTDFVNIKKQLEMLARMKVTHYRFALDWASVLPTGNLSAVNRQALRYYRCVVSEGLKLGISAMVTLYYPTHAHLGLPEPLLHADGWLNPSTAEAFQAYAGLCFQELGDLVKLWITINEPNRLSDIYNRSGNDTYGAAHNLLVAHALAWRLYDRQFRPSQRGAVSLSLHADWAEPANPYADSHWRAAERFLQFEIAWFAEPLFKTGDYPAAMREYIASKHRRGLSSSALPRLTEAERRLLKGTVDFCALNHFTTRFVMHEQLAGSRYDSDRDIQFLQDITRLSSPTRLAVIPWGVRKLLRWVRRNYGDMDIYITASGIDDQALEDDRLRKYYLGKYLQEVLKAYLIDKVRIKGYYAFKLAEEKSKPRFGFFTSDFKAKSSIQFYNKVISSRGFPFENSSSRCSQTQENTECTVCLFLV
row,Binder,ratio to parent
1,B1,0.6
2,B2,180
3,B3,350
4,B4,120
5,B5,530
6,B6,170
7,B7,120
8,B8,250
